Assay results taken from article PMC4868535, “A G-protein activation cascade from Arl13B to Arl3 and implications for ciliary targeting of lipidated proteins” (eLife, 2015).
One block for each molecule: values may come before it.

Legend:
[1] = molecular target: T1, CrArl13B-CrArl3 complex (CrArl13B nucleotide site) (Chlamydomonas reinhardtii, UniProt A8INQ0); test: X-ray crystal structure […] Å; format: binding; details: Mg2+; nucleotide site of CrArl13B
T1 construct: gene ARL13; crystal complex, one in asymmetric unit; last 58 residues of CrArl13B not visible; from E. coli; with ADP-ribosylation factor-like protein 3
T1 sequence (A8INQ0 18-278): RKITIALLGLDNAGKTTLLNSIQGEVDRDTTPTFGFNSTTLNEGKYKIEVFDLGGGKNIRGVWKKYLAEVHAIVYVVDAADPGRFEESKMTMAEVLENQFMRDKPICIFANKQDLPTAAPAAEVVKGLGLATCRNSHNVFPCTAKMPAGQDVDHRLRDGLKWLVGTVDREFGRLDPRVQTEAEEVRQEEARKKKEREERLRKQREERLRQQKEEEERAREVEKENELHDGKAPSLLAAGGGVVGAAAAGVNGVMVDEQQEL
T1 sequence (A8ISN6 2-177 partner): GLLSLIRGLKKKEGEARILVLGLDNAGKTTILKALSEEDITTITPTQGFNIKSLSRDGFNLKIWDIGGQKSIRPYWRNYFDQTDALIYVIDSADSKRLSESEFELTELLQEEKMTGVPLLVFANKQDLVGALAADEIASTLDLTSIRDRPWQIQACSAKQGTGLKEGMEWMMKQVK

[2] = molecular target: T2, CrArl13B-CrArl3 complex (CrArl3 nucleotide site) (Chlamydomonas reinhardtii, UniProt A8ISN6); test: X-ray crystal structure […] Å; format: binding; details: Mg2+; nucleotide site of CrArl3; post-nucleotide-exchange state
T2 construct: gene ARL3; crystal complex, one in asymmetric unit; last 58 residues of CrArl13B not visible; from E. coli; with ADP-ribosylation factor-like protein 13B
T2 sequence (A8ISN6 2-177 limits assumed): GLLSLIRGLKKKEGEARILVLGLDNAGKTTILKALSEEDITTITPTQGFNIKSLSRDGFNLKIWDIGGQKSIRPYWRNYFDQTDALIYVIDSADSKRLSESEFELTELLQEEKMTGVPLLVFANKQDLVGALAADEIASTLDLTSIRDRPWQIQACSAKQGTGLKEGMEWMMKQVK
T2 sequence (A8INQ0 18-278 partner): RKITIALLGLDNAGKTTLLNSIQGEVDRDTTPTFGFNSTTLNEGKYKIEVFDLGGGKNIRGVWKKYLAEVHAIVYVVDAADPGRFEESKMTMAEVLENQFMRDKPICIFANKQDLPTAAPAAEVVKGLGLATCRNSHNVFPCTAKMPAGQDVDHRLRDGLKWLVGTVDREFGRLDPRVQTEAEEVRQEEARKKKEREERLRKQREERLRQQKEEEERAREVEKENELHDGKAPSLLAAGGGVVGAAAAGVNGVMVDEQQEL

[3] = molecular target: T3, CrArl13B 18-278 (Chlamydomonas reinhardtii, UniProt A8INQ0); test: nucleotide loading (HPLC) and GEF activity of the loaded protein; format: binding; details: 5 mM MgCl2, pH 7.5, 20°C
T3 construct: gene ARL13; residues 18-278 (G-domain plus C-terminal helix), expressed in E. coli as GST fusion
T3 sequence (A8INQ0 18-278): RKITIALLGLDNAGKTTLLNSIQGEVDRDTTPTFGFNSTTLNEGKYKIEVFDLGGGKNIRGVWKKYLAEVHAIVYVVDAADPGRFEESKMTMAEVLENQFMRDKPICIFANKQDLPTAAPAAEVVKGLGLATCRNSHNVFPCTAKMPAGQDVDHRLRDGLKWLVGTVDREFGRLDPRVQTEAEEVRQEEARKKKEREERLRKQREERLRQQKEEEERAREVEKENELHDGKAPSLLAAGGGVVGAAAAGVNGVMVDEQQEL

[4] = molecular target: CrArl3 (Chlamydomonas reinhardtii)
[5] = molecular target: CrArl3 (Chlamydomonas reinhardtii); remark: listed apart in the source
[6] = molecular target: CrArl3 D146R (Chlamydomonas reinhardtii)
[7] = molecular target: CrArl3 D103R (Chlamydomonas reinhardtii)
[8] = molecular target: CrArl3 (Chlamydomonas reinhardtii); remark: listed apart in the source

Molecule: Nc1nc2c(ncn2[C@@H]2O[C@H](COP(=O)(O)OP(=O)(O)NP(=O)(O)O)[C@@H](O)[C@H]2O)c(=O)[nH]1 [GppNHp]
X-ray crystal structure 2.5 Å [1]: GppNHp was clearly visible in both active sites
X-ray crystal structure 2.5 Å [2]: GppNHp was clearly visible in both active sites

Molecule: Nc1nc2c(ncn2[C@@H]2O[C@H](COP(=O)(O)OP(=O)(O)OP(=O)(O)O)[C@@H](O)[C@H]2O)c(=O)[nH]1 [GTP]
nucleotide loading (HPLC) and GEF activity of the loaded protein ([3]; GTP-bound state compared by GEF activity on CrArl3·mantGDP): CrArl13B preloaded with GDP, GTP, or GppNHp was used to analyze the exchange activity

Molecule: Nc1nc2c(ncn2[C@@H]2O[C@H](COP(=O)(O)OP(=O)(O)O)[C@@H](O)[C@H]2O)c(=O)[nH]1 [GDP]
nucleotide loading (HPLC) and GEF activity of the loaded protein ([3]; GDP-bound state compared by GEF activity on CrArl3·mantGDP): CrArl13B preloaded with GDP, GTP, or GppNHp was used to analyze the exchange activity

Kobs of nucleotide release from CrArl3 wt with 5 µM CrArl13B △203 (GEF assay, deletion constructs) [4]: 0.0001 s⁻¹
B1: CrArl13B △203 (18–202) (domain or fragment)
chain: RKITIALLGLDNAGKTTLLNSIQGEVDRDTTPTFGFNSTTLNEGKYKIEVFDLGGGKNIRGVWKKYLAEVHAIVYVVDAADPGRFEESKMTMAEVLENQFMRDKPICIFANKQDLPTAAPAAEVVKGLGLATCRNSHNVFPCTAKMPAGQDVDHRLRDGLKWLVGTVDREFGRLDPRVQTEAEEV

Kobs of nucleotide release from CrArl3 wt with 5 µM CrArl13B △233 (GEF assay, deletion constructs) [4]: 0.005 s⁻¹
B2: CrArl13B △233 (18–232) (domain or fragment)
chain: RKITIALLGLDNAGKTTLLNSIQGEVDRDTTPTFGFNSTTLNEGKYKIEVFDLGGGKNIRGVWKKYLAEVHAIVYVVDAADPGRFEESKMTMAEVLENQFMRDKPICIFANKQDLPTAAPAAEVVKGLGLATCRNSHNVFPCTAKMPAGQDVDHRLRDGLKWLVGTVDREFGRLDPRVQTEAEEVRQEEARKKKEREERLRKQREERLRQQKEEE

Kobs of mantGDP release from 500 nM CrArl3 with 5 µM CrArl13B·GDP (GEF assay) [5]: 0.0009 s⁻¹
Kobs of mantGDP release from 500 nM CrArl3 with 5 µM CrArl13B·GTP (GEF assay) [5]: 0.006 s⁻¹
Kobs of mantGDP release from 500 nM CrArl3 with 5 µM CrArl13B·GppNHp (GEF assay) [5]: 0.0078 s⁻¹
Kobs of nucleotide release from CrArl3 D146R·mantGppNHp with 5 µM CrArl13B wt (GEF assay) [6]: 0.00014 s⁻¹
Kobs of nucleotide release from CrArl3 D103R·mantGppNHp with 5 µM CrArl13B wt (GEF assay) [7]: 0.00014 s⁻¹
Kobs of nucleotide release from 500 nM CrArl3·mantGppNHp with 5 µM CrArl13B wt (GEF assay, switch interface mutants) [4]: 0.0091 s⁻¹
Kobs of nucleotide release from CrArl3 wt with 5 µM CrArl13B 18-278 (GEF assay, deletion constructs) [4]: 0.0066 s⁻¹
Kobs of nucleotide release from CrArl3 wt·mantGppNHp with 5 µM CrArl13B wt (GEF assay, charge reversal interface mutants) [4]: 0.0085 s⁻¹
KM of the GEF reaction (kobs of mantGDP release from 500 nM CrArl3 against GEF concentration) for CrArl13B·GDP [8]: 155 µM
KM of the GEF reaction (kobs of mantGDP release from 500 nM CrArl3 against GEF concentration) for CrArl13B·GTP [8]: 1.1 µM
B3: CrArl13B^18-–278 (domain or fragment)
chain: RKITIALLGLDNAGKTTLLNSIQGEVDRDTTPTFGFNSTTLNEGKYKIEVFDLGGGKNIRGVWKKYLAEVHAIVYVVDAADPGRFEESKMTMAEVLENQFMRDKPICIFANKQDLPTAAPAAEVVKGLGLATCRNSHNVFPCTAKMPAGQDVDHRLRDGLKWLVGTVDREFGRLDPRVQTEAEEVRQEEARKKKEREERLRKQREERLRQQKEEEERAREVEKENELHDGKAPSLLAAGGGVVGAAAAGVNGVMVDEQQEL

Kobs of nucleotide release from CrArl3 wt·mantGppNHp with 5 µM CrArl13B H154W (GEF assay) [4]: 0.0088 s⁻¹
B4: CrArl13B H154W (18-278) (domain or fragment)
chain: RKITIALLGLDNAGKTTLLNSIQGEVDRDTTPTFGFNSTTLNEGKYKIEVFDLGGGKNIRGVWKKYLAEVHAIVYVVDAADPGRFEESKMTMAEVLENQFMRDKPICIFANKQDLPTAAPAAEVVKGLGLATCRNSWNVFPCTAKMPAGQDVDHRLRDGLKWLVGTVDREFGRLDPRVQTEAEEVRQEEARKKKEREERLRKQREERLRQQKEEEERAREVEKENELHDGKAPSLLAAGGGVVGAAAAGVNGVMVDEQQEL

Kobs of nucleotide release from 500 nM CrArl3·mantGppNHp with 5 µM CrArl13B D46A (GEF assay) [4]: 0.0041 s⁻¹
B5: CrArl13B D46A (18-278) (domain or fragment)
chain: RKITIALLGLDNAGKTTLLNSIQGEVDRATTPTFGFNSTTLNEGKYKIEVFDLGGGKNIRGVWKKYLAEVHAIVYVVDAADPGRFEESKMTMAEVLENQFMRDKPICIFANKQDLPTAAPAAEVVKGLGLATCRNSHNVFPCTAKMPAGQDVDHRLRDGLKWLVGTVDREFGRLDPRVQTEAEEVRQEEARKKKEREERLRKQREERLRQQKEEEERAREVEKENELHDGKAPSLLAAGGGVVGAAAAGVNGVMVDEQQEL

Kobs of nucleotide release from 500 nM CrArl3·mantGppNHp with 5 µM CrArl13B Y83A (GEF assay) [4]: 0.0009 s⁻¹
B6: CrArl13B Y83A (18-278) (domain or fragment)
chain: RKITIALLGLDNAGKTTLLNSIQGEVDRDTTPTFGFNSTTLNEGKYKIEVFDLGGGKNIRGVWKKALAEVHAIVYVVDAADPGRFEESKMTMAEVLENQFMRDKPICIFANKQDLPTAAPAAEVVKGLGLATCRNSHNVFPCTAKMPAGQDVDHRLRDGLKWLVGTVDREFGRLDPRVQTEAEEVRQEEARKKKEREERLRKQREERLRQQKEEEERAREVEKENELHDGKAPSLLAAGGGVVGAAAAGVNGVMVDEQQEL

Kobs of nucleotide release from 500 nM CrArl3·mantGppNHp with 5 µM CrArl13B F51A (GEF assay) [4]: 0.002 s⁻¹
B7: CrArl13B F51A (18-278) (domain or fragment)
chain: RKITIALLGLDNAGKTTLLNSIQGEVDRDTTPTAGFNSTTLNEGKYKIEVFDLGGGKNIRGVWKKYLAEVHAIVYVVDAADPGRFEESKMTMAEVLENQFMRDKPICIFANKQDLPTAAPAAEVVKGLGLATCRNSHNVFPCTAKMPAGQDVDHRLRDGLKWLVGTVDREFGRLDPRVQTEAEEVRQEEARKKKEREERLRKQREERLRQQKEEEERAREVEKENELHDGKAPSLLAAGGGVVGAAAAGVNGVMVDEQQEL

Kobs of nucleotide release from 500 nM CrArl3·mantGppNHp with 5 µM CrArl13B N75A (GEF assay) [4]: 0.0044 s⁻¹
B8: CrArl13B N75A (18-278) (domain or fragment)
chain: RKITIALLGLDNAGKTTLLNSIQGEVDRDTTPTFGFNSTTLNEGKYKIEVFDLGGGKAIRGVWKKYLAEVHAIVYVVDAADPGRFEESKMTMAEVLENQFMRDKPICIFANKQDLPTAAPAAEVVKGLGLATCRNSHNVFPCTAKMPAGQDVDHRLRDGLKWLVGTVDREFGRLDPRVQTEAEEVRQEEARKKKEREERLRKQREERLRQQKEEEERAREVEKENELHDGKAPSLLAAGGGVVGAAAAGVNGVMVDEQQEL

Kobs of nucleotide release from 500 nM CrArl3·mantGppNHp with 5 µM CrArl13B F53A (GEF assay) [4]: 0.00042 s⁻¹
B9: CrArl13B^F53A (18-278) (domain or fragment)
chain: RKITIALLGLDNAGKTTLLNSIQGEVDRDTTPTFGANSTTLNEGKYKIEVFDLGGGKNIRGVWKKYLAEVHAIVYVVDAADPGRFEESKMTMAEVLENQFMRDKPICIFANKQDLPTAAPAAEVVKGLGLATCRNSHNVFPCTAKMPAGQDVDHRLRDGLKWLVGTVDREFGRLDPRVQTEAEEVRQEEARKKKEREERLRKQREERLRQQKEEEERAREVEKENELHDGKAPSLLAAGGGVVGAAAAGVNGVMVDEQQEL

Kobs of nucleotide release from CrArl3 wt with 5 µM CrArl13B △243 (GEF assay, deletion constructs) [4]: 0.0045 s⁻¹
B10: CrArl13B △243 (18–242) (domain or fragment)
chain: RKITIALLGLDNAGKTTLLNSIQGEVDRDTTPTFGFNSTTLNEGKYKIEVFDLGGGKNIRGVWKKYLAEVHAIVYVVDAADPGRFEESKMTMAEVLENQFMRDKPICIFANKQDLPTAAPAAEVVKGLGLATCRNSHNVFPCTAKMPAGQDVDHRLRDGLKWLVGTVDREFGRLDPRVQTEAEEVRQEEARKKKEREERLRKQREERLRQQKEEEERAREVEKEN

Kobs of nucleotide release from CrArl3 wt with 5 µM CrArl13B △213 (GEF assay, deletion constructs) [4]: 0.0001 s⁻¹
B11: CrArl13B △213 (18–212) (domain or fragment)
chain: RKITIALLGLDNAGKTTLLNSIQGEVDRDTTPTFGFNSTTLNEGKYKIEVFDLGGGKNIRGVWKKYLAEVHAIVYVVDAADPGRFEESKMTMAEVLENQFMRDKPICIFANKQDLPTAAPAAEVVKGLGLATCRNSHNVFPCTAKMPAGQDVDHRLRDGLKWLVGTVDREFGRLDPRVQTEAEEVRQEEARKKKE

Kobs of nucleotide release from CrArl3 wt with 5 µM CrArl13B △220 (GEF assay, deletion constructs) [4]: 0.0011 s⁻¹
B12: CrArl13B △220 (18–219) (domain or fragment)
chain: RKITIALLGLDNAGKTTLLNSIQGEVDRDTTPTFGFNSTTLNEGKYKIEVFDLGGGKNIRGVWKKYLAEVHAIVYVVDAADPGRFEESKMTMAEVLENQFMRDKPICIFANKQDLPTAAPAAEVVKGLGLATCRNSHNVFPCTAKMPAGQDVDHRLRDGLKWLVGTVDREFGRLDPRVQTEAEEVRQEEARKKKEREERLRK
